This data set has as its target RNase H (D132N, inactive mutant) (Bacillus halodurans, UniProt Q9KEI9 Q9KEI9:59-196, D132N). The experiment in a line: structure; PDB 3TWH, 1.80 A; 5 mM MgCl2, MES pH 6.5, PEG 20000; substrate complex. As to conditions: tags: expressed in BL21(DE3) pLysE, 5 bp duplex with one-base overhang at both ends. As for the experimental part: By using the sitting-drop vapor diffusion method at 25° C., the crystals were readily obtained from a mixture of the crystallization screen [Buffer: 0.1 M MES, pH 6.5; precipitant: 12% (w/v), PEG 20000].
We have synthesized Se-modified DNAs to investigate the DNA/RNA/RNase H complex. […] The complex of RNase H/RNA/Se-DNA (5′-UCGACA-3′/5′-AT-^SeG-TC-^SeGp-3′) was crystallized in a buffer containing 0.1 M MES (pH 6.5) and precipitant (12% w/v, PEG 20000). The crystals were also grown using the sitting drop vapor diffusion method. The crystals appeared within a week and reached their maximum size within a month. Two crystals were used to collect the MAD/SAD data sets. […] After the SAD or MAD dataset is collected from a single crystal, the selenium atoms can be located by direct methods and the phase can be determined similarly to the well-established protein strategy (Elkayam et al., Cell, 150:100-110 (2012); Ferre-D'Amare et al., Nature, 395:567-574 (1998); Hendrickson, Science, 254:51-58 (1991); Hendrickson, Trends Biochem. Sci., 25:637-643 (2000); Schirle and MacRae, Science, 336:1037-1040 (2012); Yang et al., Science 249:1398-1405 (1990)).
The Se-complex structure was finally determined (3TWH; 1.80 Å resolution; FIG. 1) via the selenium anomalous signal and MAD phasing. […] Moreover, the Se-complex structure has been determined by both MAD phasing and molecular replacement. […]

B1: Se-DNA/RNA duplex (DNA-Se, double Se) (DNA:RNA)
DNA: ATGTCG
RNA: UCGACA
modifications: 6-Se-dG at DNA positions 3 and 6; DNA 3'-phosphate
Take B1: the binding result is recorded as “binds”.
